In patent US20250129166A1 (Five Prime, published 2025):

T1: human VISTA on cells (endogenous on human monocytes and AML3 cells; ectopic full-length on 293T cells) (human, UniProt Q9H7M9 33-311)
T1 sequence (looked up): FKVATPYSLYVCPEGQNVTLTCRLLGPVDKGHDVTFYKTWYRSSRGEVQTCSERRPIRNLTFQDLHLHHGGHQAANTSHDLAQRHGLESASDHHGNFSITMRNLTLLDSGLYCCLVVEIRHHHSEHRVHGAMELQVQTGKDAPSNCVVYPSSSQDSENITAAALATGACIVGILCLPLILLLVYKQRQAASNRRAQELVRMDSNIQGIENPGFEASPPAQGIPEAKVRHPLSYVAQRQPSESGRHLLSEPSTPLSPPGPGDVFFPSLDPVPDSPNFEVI

T2: full length human PSGL-1 (SEQ ID NO: 3) expressed on heparan sulfate-mutant CHO cells (human, UniProt Q14242 42-412)
T2 construct: also called CHO-PSGL-1 cells
T2 sequence: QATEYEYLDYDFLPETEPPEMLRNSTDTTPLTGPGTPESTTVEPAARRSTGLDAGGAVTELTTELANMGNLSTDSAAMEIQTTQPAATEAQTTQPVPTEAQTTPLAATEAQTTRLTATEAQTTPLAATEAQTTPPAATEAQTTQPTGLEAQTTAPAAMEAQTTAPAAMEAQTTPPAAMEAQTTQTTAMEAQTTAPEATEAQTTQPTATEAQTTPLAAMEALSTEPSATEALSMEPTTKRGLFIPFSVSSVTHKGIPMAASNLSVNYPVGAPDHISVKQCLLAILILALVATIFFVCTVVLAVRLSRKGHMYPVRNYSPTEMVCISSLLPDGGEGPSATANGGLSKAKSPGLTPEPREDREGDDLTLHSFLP

T3: hVISTA multimer: monobiotinylated hVISTA ECD (Phe 33-Ala 194, Accession #AAH20568, polyhistidine) loaded on … (human, UniProt Q9H7M9 33-194, limits assumed, monobiotinylated; loaded at a 28:1 molar ratio onto PE-conjugated streptavidin dextramers)
T3 construct: also called hVISTA-loaded dextramers; recombinant VISTA multimer
T3 sequence (looked up): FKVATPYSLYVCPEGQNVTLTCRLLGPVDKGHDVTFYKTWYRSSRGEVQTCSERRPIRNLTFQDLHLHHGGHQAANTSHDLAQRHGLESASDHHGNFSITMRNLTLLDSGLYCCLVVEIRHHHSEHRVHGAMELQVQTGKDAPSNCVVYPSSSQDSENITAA


Columns and labels:
[1] = target: T1, human VISTA on cells (endogenous on …); experiment: cell-based or functional assay
[2] = target: T2, full length human PSGL-1 (SEQ ID NO: 3) …; experiment: VISTA-Fc binding to CHO-PSGL-1 cells at pH 6.0
[3] = target: T4, monovalent hVISTA-ECD (amino acids 32-193 of SEQ ID NO: 1 with a 7xHis tail) (human, UniProt Q9H7M9 33-193); experiment: SPR, mAb on Protein A, 37C, pH 6.0
T4 construct: also called huVISTA-His; human VISTA-ECD
Experimental: (§1) Binding of several preparations of each of the '029 progeny clones and of the parent '029 antibodies, formatted as IgG1.3 antibodies, to human VISTA at pH 6.0 and 7.4 was measured by Surface plasmon resonance (SPR). SPR analysis was performed to measure koff and KD binding affinity measurements for VISTA Abs at acidic and neutral pHs using a Biacore® T100 instrument (GE Healthcare). Protein A (ThermoFisher Scientific catalog #21181) was diluted to 20 μg/ml in 10 mM sodium acetate pH 4.5 and immobilized onto flow cells of a CM5 biosensor following the manufacturer's amine coupling protocol (GE Healthcare), targeting 2,000 RU immobilization density of Protein A per flow cell. SPR experiments were conducted at 37° C. using PBST (137 mM sodium chloride, 2.7 mM potassium chloride, 10 mM phosphate buffer, 0.05% Tween® 20) running buffer at pH 7.4 and 6.0. Antibodies were diluted to 25 nM in PBST pH 7.4, and were captured across active biosensor flow cells at 5 ul/min for 60 seconds. A concentration series of 50-5 nM monovalent hVISTA-ECD (SEQ ID NO: 325) was prepared in pH 7.4 and 6.0 running buffers, and was injected over the captured antibodies at 40 ul/min to measure association and dissociation. Two 15 second injections of 10 mM glycine pH 1.5 were used to regenerate the Protein A capture surface between assay cycles. Rate constants ka (kₒₙ) and kd (koff) were derived from reference flow cell and 0 nM blank-subtracted sensorgrams, and were fit to a 1:1 binding model in Biacore® T200 Evaluation Software v.2.0. The affinity constant, KD was calculated as the ratio of rate constants koff/kₒₙ for each VISTA antibody.

[4] = target: T4, monovalent hVISTA-ECD (amino acids …); experiment: SPR, mAb on Protein A, 37C, pH 7.4
Experimental: as §1

[5] = target: T4, monovalent hVISTA-ECD (amino acids …); experiment: SPR, mAb captured on Protein A, hVISTA-ECD analyte, 37 C, pH 6.0
Experimental: (§2) Binding kinetics were measured using a Biacore® T100 instrument (GE Healthcare). Protein A (ThermoFisher Scientific catalog #21181) was diluted to 20 μg/ml in 10 mM sodium acetate pH 4.5 and immobilized onto flow cells of a CM5 biosensor following the manufacturer's amine coupling protocol (GE Healthcare), targeting 2,000 RU immobilization density of Protein A per flow cell. The assay was conducted at 37° C. using PBST (137 mM sodium chloride, 2.7 mM potassium chloride, 10 mM phosphate buffer, 0.05% Tween 20) running buffer at pH 7.4, 6.7 and 6.0. Antibodies were diluted to 25 nM in PBST pH 7.4, and were captured across active biosensor flow cells at 5 ul/min for 40 seconds. A concentration series of 100-10 nM monovalent hVISTA-ECD (SEQ ID NO: 325) was prepared in pH 7.4, 6.7 and 6.0 running buffers, and was injected over the captured antibodies at 40 ul/min to measure association and dissociation. Two 15 second injections of 10 mM glycine pH 1.5 were used to regenerate the Protein A capture surface between assay cycles. Rate constants ka (kon) and kd (koff) were derived from reference flow cell and 0 nM blank-subtracted sensorgrams, and were fit to a 1:1 binding model in Biacore® T200 Evaluation Software v.2.0.
(§3) The affinity constant, KD was calculated as the ratio of rate constants koff/kₒₙ for each VISTA antibody. The % Rmax was calculated to compare how pH affects an antibody's binding capacity for VISTA, and represents the measured maximal VISTA binding response relative to the expected maximal VISTA binding response. The % Rmax is defined as the ratio of the reference-subtracted ‘binding’ report point response at the end of the 100 nM VISTA injection for each antibody (Rmax) relative to the expected VISTA binding response (Rexp). Rexp is calculated as Rexp=[(VISTA-ECD molecular weight/mAb molecular weight)×(mAb ‘capture’ report point response (RUs)]×2 binding sites per mAb.

[6] = target: T4, monovalent hVISTA-ECD (amino acids …); experiment: SPR, mAb captured on Protein A, hVISTA-ECD analyte, 37 C, pH 6.7
Experimental: as §2, §3

[7] = target: T4, monovalent hVISTA-ECD (amino acids …); experiment: SPR, mAb captured on Protein A, hVISTA-ECD analyte, 37 C, pH 6.0; remark: listed apart in the source
Experimental: as §2, §3

[8] = target: T4, monovalent hVISTA-ECD (amino acids …); experiment: SPR, mAb captured on Protein A, hVISTA-ECD analyte, 37 C, pH 6.7; remark: listed apart in the source
Experimental: as §2, §3

[9] = target: T3, hVISTA multimer: monobiotinylated …; experiment: blocking of VISTA multimer binding to activated human CD4+ T cells, flow cytometry, pH 6.0
Experimental: As a control, activated CD4+ T cells were stained with PE-conjugated streptavidin dextramers that were not loaded with hVISTA. The stained cells were washed with HBSS+MES and acquired on a flow cytometer. Data were analyzed using FlowJo™ software (BD Biosciences). […] Left, from darker gray to lighter, the filled histograms depict binding at pH 7.0, 6.5, 6.4, 6.3, 6.1, and 6.0. Some histograms are labeled with their corresponding pH. Non-VISTA control multimer binding at pH 6.0 is shown as the unfilled histogram. Right, graphed PE mean fluorescence intensities (MFI) of CD4+ T cells stained with hVISTA-loaded dextramers (circles) or with non-loaded dextramers (triangles) at various pH.
This blocking assay was performed as described in Example 4.

[10] = target: T4, monovalent hVISTA-ECD (amino acids …); experiment: SPR, mAb captured on Protein A, hVISTA-ECD analyte, 37 C, pH 7.4
Experimental: as §2, §3

| Kd [3] [nM] | kon [3] [M⁻¹ s⁻¹] | koff [6] [s⁻¹] | koff [7] [s⁻¹] | koff [8] [s⁻¹] | IC50 (read off the curve) [9] [µg/mL] | Binder | also measured |
| --- | --- | --- | --- | --- | --- | --- | --- |
| – | – | – | – | – | – | VISTA.5 (mAb1) (antibody, V domains shown) VH: AVQLQESGPGLVRPSQSLSLTCTVTDYSITSDYAWNWIRQFPGSKLEWLGFIGYSGNTNYNPSLESRISITRHTSKNQFFLHLNSMTTEDTATYYCARSLYGGSHWYFDVWGAGTTVTVSS VL: DIVLTQSPASLAVSLGQRATISCRGSESVEYYGTILMQWYQQKPGQPPKLLIYGASNVESGVPARFSGSGSGTDFSLNIHPVEEDDIAMYFCQQSRKVPWTFGGGTKLEIK | EC50 of AML3 cell viability (Cell Titer Glo), endolysosome-dependent secondary antibody drug conjugate killing assay [1]: 0.485 µg/mL |
| – | – | – | – | – | – | H2R mutant (Fc fusion, Produced by transient transfection of Expi293 cells; not shown: human IgG1 Fc part and any linker or tag of the VISTA-Fc construct) FKVATPYSLYVCPEGQNVTLTCRLLGPVDKGHDVTFYKTWYRSSRGEVQTCSERRPIRNLTFQDLHLHHGGHQAANTSHDLAQRHGLESASDHHGNFSITMRNLTLLDSGLYCCLVVEIRRRRSEHRVHGAMELQVQTGKDAPSNCVVYPSSSQDSENITAA | binding result [2]: binds |
| 7.4 | 780000 | 0.0044 | 0.0082 | 0.0044 | ~0.05 | P1-061029.IgG1.3 (antibody, IgG1.3 = effectorless IgG1 (L234A, L235E, G237A); also called P1-061029 (parent); P1-061029 hIgG1.3f) heavy: EVQLVESGGGLVQPGKSLRLSCAASGFTLDDYAMHWVRQAPGKGLEWVSGINWNSANIGYADSVKGRFTISRDNAKNSLYLQMNSLRTEDTALYYCAKVPGYSGGWIDAFDVWGQGTMVTVSSASTKGPSVFPLAPSSKSTSGGTAALGCLVKDYFPEPVTVSWNSGALTSGVHTFPAVLQSSGLYSLSSVVTVPSSSLGTQTYICNVNHKPSNTKVDKRVEPKSCDKTHTCPPCPAPEAEGAPSVFLFPPKPKDTLMISRTPEVTCVVVDVSHEDPEVKFNWYVDGVEVHNAKTKPREEQYNSTYRVVSVLTVLHQDWLNGKEYKCKVSNKALPAPIEKTISKAKGQPREPQVYTLPPSREEMTKNQVSLTCLVKGFYPSDIAVEWESNGQPENNYKTTPPVLDSDGSFFLYSKLTVDKSRWQQGNVFSCSVMHEALHNHYTQKSLSLSPG light: not shown | Kd [4]: 36 nM; kon [4]: 180000 M⁻¹ s⁻¹; koff [5]: 0.0082 s⁻¹ |
| – | – | – | 0.0082 | 0.0047 | – | P1-068767_E100fF_D102V (antibody, human IgG1, kappa, V domains shown, also called P1-070920) VH: EVQLVESGGGLVQPGKSLRLSCAASGFTLEDYAMHWVRQAPGKGLEWVSGIDWNSENIGYADSVKGRFTISRDNAKNSLYLQMNSLRTEDTALYYCAKVPGYSGGWIDAFDVWGQGTMVTVSS VL: not shown | koff [10]: 0.0083 s⁻¹ |
| 5.5 | 280000 | 0.0066 | – | – | ~0.03 | P1-068761.IgG1.3 (antibody, IgG1.3; also called P1-068761 hIgG1.3f; P1-0687617) heavy: EVQLVESGGGLVQPGKSLRLSCAASGFTLEDEAMHWVRQAPGKGLEWVSGINWNSEEIGYADSVKGRFTISRDNAKNSLYLQMNSLRTEDTALYYCAKVPGYSHGWIDAEDVWGQGTMVTVSSASTKGPSVFPLAPSSKSTSGGTAALGCLVKDYFPEPVTVSWNSGALTSGVHTFPAVLQSSGLYSLSSVVTVPSSSLGTQTYICNVNHKPSNTKVDKRVEPKSCDKTHTCPPCPAPEAEGAPSVFLFPPKPKDTLMISRTPEVTCVVVDVSHEDPEVKFNWYVDGVEVHNAKTKPREEQYNSTYRVVSVLTVLHQDWLNGKEYKCKVSNKALPAPIEKTISKAKGQPREPQVYTLPPSREEMTKNQVSLTCLVKGFYPSDIAVEWESNGQPENNYKTTPPVLDSDGSFFLYSKLTVDKSRWQQGNVFSCSVMHEALHNHYTQKSLSLSPG light: not shown | – |
